Measurements: patent US20200157187A1 (LOYOLA UNIVERSITY CHICAGO, published 2020)

What was measured:
[1] = biological target: T1, active TGF-β on the surface of human CD4+CD25+ Tregs (human, UniProt P01137 279-390, The active form is a disulfide-linked homodimer of the growth factor domain; one chain is given.); test: confocal microscopy of human Tregs, detected with anti-rabbit Fab-AF488
T1 construct: also called surface TGF-β; surface active TGF-β
Method: FIGS. 5A and 5B represent functional characterization of 6Fc. FIG. 5A represents an effect of 6Fc on phosphorylation of SMAD2/3. […] As a control, WTFc was used (shown on the right panel). Phosphorylation of SMAD2,3 was assessed by flow cytometry (solid line). Dotted lines show isotype control staining. FIG. 5B represents confocal images of Tregs stained with the monobody-Ig fusion proteins. Purified human PBMC-derived Tregs were mixed with 6Fc or WTFc (40 μg/ml), followed by anti-rabbit Fab-AF488 (green) and Hoechst-33342 (blue) staining. Single-cell images were obtained using an LSM-510 confocal microscope (×40).

TGF-β2 = biological target: T2, TGF-β2 (UniProt P61812 303-414); test: ELISA on coated TGF-β isoforms
T2 sequence (looked up): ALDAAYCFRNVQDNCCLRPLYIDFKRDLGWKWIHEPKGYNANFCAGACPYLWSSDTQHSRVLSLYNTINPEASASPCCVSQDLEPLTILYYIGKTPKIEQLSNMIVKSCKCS

TGF-β3 = biological target: T3, TGF-β3 (UniProt P10600 301-412); test: ELISA on coated TGF-β isoforms
T3 sequence (looked up): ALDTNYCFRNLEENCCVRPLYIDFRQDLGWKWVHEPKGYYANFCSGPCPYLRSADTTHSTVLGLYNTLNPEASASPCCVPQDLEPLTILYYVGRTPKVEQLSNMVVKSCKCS

[2] = biological target: T4, active TGF-β1, recombinant (Ala279-Ser390) (UniProt P01137 279-390); test: SPR, kinetic analysis on active TGF-β
T4 construct: range 279-390; The background describes the growth factor domain as a dimer; also called purified active TGF-β1

[3] = biological target: T4, active TGF-β1, recombinant …; test: SPR, chip coated with active TGF-β, positive control antibody

T4 sequence (P01137 279-390 limits assumed, form in doubt): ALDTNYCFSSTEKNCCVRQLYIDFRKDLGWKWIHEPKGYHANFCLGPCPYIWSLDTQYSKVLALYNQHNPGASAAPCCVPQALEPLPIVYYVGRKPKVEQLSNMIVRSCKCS
T1 sequence (P01137 279-390 limits assumed): as the sequence (P01137 279-390 limits assumed, form in doubt) above

B1: WTFc (wild-type FN3 fused to rabbit IgG constant region CH2/CH3, His6 tag) (Fc fusion)
chain (part 1 of 2): AVSDVPRKLEVVAATPTSLLISWDAPIKRRLYYRITYGETGGNSPVQEFTVPGSKSTATISGLKPGVDYTITVYAVTYPAPYSKPISINYR
chain (part 2 of 2): HHHHHH
notes: Control fusion protein; also called wild-type FN3 fusion protein; not shown: rabbit IgG constant region, CH2/CH3 (Cγ2-Cγ3) domains
B1: no binding (tested: 40 µg/ml) [1]; no binding (TGF-β2); no binding (TGF-β3).

B2: anti-TGF-β monoclonal antibody 1D11 (antibody, V domains shown)
VH: QVQLQQSGPELVRPGASVKLSCKASGYIFITYWMNWVKQRPGQGLEWIGQIFPASGSTNYNEMFEGKATLTVDTSSSTAYMQLSSLTSEDSAVYYCARGDGNYALDAMDYWGQGTSVTVSS
VL: DIVLTQSPASLAVSLGQRATISCRASESVDSYGNSFMHWYQQKSGQPPKLLIYLASNLESGVPARFSGSGSRTDFTLTIDPVEADDAATYYCQQNNEDPLTFGAGTKLEIK
Work on B2 yielded a koff [2] of 0.00028 s⁻¹, a kon [2] of 14000 M⁻¹ s⁻¹ and a Kd [3] of 1.9 nM.
